This note sets out measurements from US20150086555A1.

What all share (settings): remark: other sources report otherwise
Test [1] addresses T1, recombinant soluble homotrimeric HA of A/common magpie/Hong Kong/5052/07 (H5N1) (Influenza A virus A/common magpie/Hong Kong/5052/2007(H5N1)). Description: HA microarray, BCC supernatant.
Test [2] deals with recombinant homotrimeric HA A/common magpie/Hong Kong/5052/07 H5N1 (Influenza A virus A/common magpie/Hong Kong/5052/2007(H5N1)). Put plainly: protein microarray, purified IgG, trimeric HA.
The target of test [3] is T1, recombinant soluble homotrimeric HA of …. Put plainly: trimeric HA microarray, transfection supernatant set 2.
For test [4] the target is unchanged. Put plainly: trimeric HA microarray, transfection supernatant set 5.
Test [5] deals with recombinant soluble homotrimeric HA, A/common magpie/Hong Kong/5052/07 H5N1 (Influenza A virus A/common magpie/Hong Kong/5052/2007(H5N1)). Description: microarray, transfection SN IgG, trimeric HA.

B1: TCN-551 (5243_D01) (antibody, V domains shown)
VH: EVQLVQSGSEVKKPGESLKISCKGSGYSFSNYWIGWVRHMPGKGLEWMGIIYPGDSDTRYSPSFQGQVTMSADKSSSTVYLQWSSLKASDTAIYYCARRGGHSFGYGSGGDTHSEFDSWGQGTLVTVSS
VL: QSVLTQSPSVSAAPGQKVTISCSGSDSNIGDYFVCWYQHLPGKPPQLLIYENNKRPSGIPDRFSGSKSGTSATLGITGIQTGDEADYYCATWDGSLSAWVFGGGTKLTVL
In the case of B1, the values for the Trimeric HA Binding: RLU in test [1] and in test [2] were 45700 RLU and 907 RLU, respectively.

B2: TCN-528 (5087_P17) (antibody, V domains shown)
VH: QVQLVQSGSEVKKPGASVKVSCKASGYTFTNYDINWIRQAPGQGLEWMGWINPNSGTTGSAQRFQGRVTITVDTSITTVYMELSSLRSDDTAIYYCARGRELLRLQHFLTDSQSERRDCFDPWGQGTLVTVSS
VL: DIQMTQSPSSLSASVGDRVTITCRANQDIGIYLNWYQQNPGKVPKLLLHGASSLQGGVPSRFSASGSGTDFTLTIHSLQPEDLATYYCQQSRRLPYTFGQGTRVELK
Regarding B2, the Trimeric HA Binding: RLU in test [2] turned out to be 25500 RLU; in test [3], 45300 RLU.

B3: TCN-545 (5082_I15) (antibody, V domains shown)
VH: QVQLQQWGAGLLKPSETLSLSCAVFGGSFSDYYWTWIRQPPGKGLEWIGEIKHSGRTNYNPSLESRVTISVDTSKNQFSLKLSSVTAADTAIYYCARGTDPDTEGYCRSGSCSAFDFWGQGTLVTVSS
VL: EIVLTQSPGTLSLSPGERATLSCRASHFVNYRSLAWYQQTPGQVPRLLIYGASTRATGIPDRFSGSGSGTDFTLTISRLEPEDFAVYFCQQYGGSPRYTFGQGTRLEIK
For the molecule B3, the results for the Trimeric HA Binding: RLU in test [2] and in test [4] were 804 RLU and 1390 RLU, respectively.

B4: TCN-546 (5089_L08) (antibody, V domains shown)
VH: QVQLQQWGAGLLKPSETLSLTCGVYGGSLSDYYWSWIRQPPGKGLEWIGEINHSGGTNYNPSLKRRVTISVDTSKKQFSLKMNSVTAADTAVYYCARGTDPDTEVYCRAGNCAAFDFWGQGTLVTVSS
VL: EIVLTQSPGTLSLSPGERATLSCRASHFVIGRAVAWYQQKPGQAPRLLIYGASSRATGIPDRFSGSGSGTDFTLTISRLETEDFAVFYCQHYGSSPRYAFGQGTKLEIK
As for B4, the Trimeric HA Binding: RLU in test [2] was determined as 810 RLU; in test [4], 1920 RLU.

B5: TCN-542 (5079_A16) (antibody, V domains shown)
VH: QVQLQESGPGLVKPSQTLSLTCTVSGGSISSGNYYWNWVRQHPGKGLEWIGYIYYRGSTFYNPSLKSRVTISIDTSKNQFSLRLSSVTAADTAVYYCAKDTRSSLDNYQYGMDVWGQGTTVTVSS
VL: QTVVTQEPSLTVSPGGTVTLTCASSTGAVTSSYFPNWFQQKPGQAPRPLIYSTTIRHSWTPARFSGSLLGGKAALTLSGVQPEDEADYYCLLYSGGDPVAFGGGTKLTVL
For the molecule B5, in test [2], the Trimeric HA Binding: RLU was determined as 1540 RLU.

B6: TCN-555 (5246_L16) (antibody, V domains shown)
VH: QVQLVQSGAEVKRPGSSVKVSCTASGGIFRKNAISWVRQAPGQGLEWMGGIIAVFNTANYAQKFQNRVKITADESGNTAYMELSSLTSDDTAVYYCASHPKYFYGSGSYPDFWGQGTLVTVSS
VL: QSALTQPRSVSGSPGQSITISCTGGSSDIGASNSVSWYQQHPGKAPKLVIFDVTERPSGVPHRFSGSKSGNTASLTVSGLQPDDEADYFCCAYGGKYLVVFGGGTKVTVL
For the molecule B6, the values for the Trimeric HA Binding: RLU in test [1], in test [5] and in test [2] were 16100 RLU, 33600 RLU and 17000 RLU, respectively.

B7: TCN-550 (5096_F06) (antibody, V domains shown)
VH: QVQLQESGPGLVKPSETLSLTCTVSGASINSHYWSWIRQPPGKGLEWIGYVYYSGSTTYNPSLKSRVTLSVDTSKNQFSLNLSSVTAADTAFYYCARHPYDVLTGSGDWFDPWGQGTLVTVSS
VL: SYVLTQAPSVSVAPGQTARITCGGNAIGSKKVHWYQHKAGQAPVLVVYDDTDRPSGIPERFSGSNSWSTATLTINRVEAGDEADYYCQVWDFTIDHVVFGGGTKLTVL
In the case of B7, the Trimeric HA Binding: RLU in test [5] turned out to be 993 RLU; in test [2], 753 RLU.

B8: TCN-541 (5062_M11) (antibody, V domains shown)
VH: QVQLQESGPGLVKPSETLSLTCTVSGGSINSYYWNWIRQPPGKGLEWIGYIYHSGSTNYNPSLKSRVTISVDTSKNQFSLQLSSVTAADTAVYYCARLRTDYGDPDSVYYYGMDVWGQGTTVTVSS
VL: SYELTQPPSVSVSPGQTARITCSGDALPKQNAYWYQQKPGQAPVLLIYKDSERPSGIPERFSGSSSGTTVTLTISGVQAEDEADYYCQSADSSGTSWVFGGGTKLTVL
For the molecule B8, in test [2], the Trimeric HA Binding: RLU was determined as 728 RLU.

B9: TCN-521 (3280_D18) (antibody, V domains shown)
VH: EVQLVQSGGGLVQPGGSLRLACVVSGFTVTSNYITWVRQAPGKGLEWVSVIYSHGRAYYSASVNGRFTISRHTSKNTVYLEMNSLRPEDTAVYYCAGGGLVGGYDEYFFDYWGQGTLATVSS
VL: ETVLTQSPGTLSLTPGERATLSCRVGQSVSGSHLAWYQQKPGQAPRLLIYGASSRATGIPDRFGGSVSGTDFTLTISRLEPEDSAVYYCQQYGDSRYTFGQGTKLEIK
For the molecule B9, the Trimeric HA Binding: RLU in test [1] worked out at 13500 RLU.

B10: TCN-543 (5081_G23) (antibody, V domains shown)
VH: QVHLVQSGAEVRKPGDSVKVSCKTSGYTFSTYPVAWVRQVPGQGLEWMGWISTYNGNTNFAQNFQGRVTLTTDTTTNTAYMEVRSLKFDDTAVYYCARVEGSYRDFWNNQNRFDPWGQGTLVTVSS
VL: SYVLTQPPSVSVAPGQTARISCGGSNIGGKSVHWYQQKPGQAPVLVVYDDSGRPSGIPERFSGSNSGDTATLTISRVEAGDEADYFCQVWDNFGGVFGTGTKVTVL
On to B10, for which the values for the Trimeric HA Binding: RLU in test [2] and in test [4] were 679 RLU and 1070 RLU, respectively.

B11: TCN-557 (5081_A04) (antibody, V domains shown)
VH: QVQLVQSGAEVKKPGASVKVSCKASGHTFTGYYIHWVRQAPGQGLEWMGWINPDSGATSSAQNFQGRVTMTGDTSSSTAYMELSRLSFDDTAVYYCARVLFTSPFDFWGEGTLVTVSS
VL: QAVVTQEPSLAVSPGGTVTLTCGSSTGAVTRGHYPYWFQQKPGQAPRALIYDSAGNRHSWTPARFSGSLLGGKAALTLSGAQPEDEAEYYCLLSYSGVWVFGGGTKLTVL
On to B11, for which the Trimeric HA Binding: RLU in test [5] amounted to 54900 RLU; in test [2], 23700 RLU.

B12: TCN-537 (3194_D21) (antibody, V domains shown)
VH: QVQLQQWGSGLLKPSETLSLTCAVYGGSFRDDYWTWIRQPPGKGLEWIGEINHSGRTNYNPSLKSRVTISVDTSLKQFSLKVISVTAADTAVYYCARGTSHVSRYFDWLPPTNWFDPWGQGTQVTVSS
VL: DIVLTQSPGTLSLSPGERATLSCRASQSVSSSYLAWYQQKPGQAPRLVMYGAATRATGIPDRFSGSGSGPDFTLTISRLEPEDFAMYYCQQYGNSPITFGQGTRLEIK
With B12, the Trimeric HA Binding: RLU in test [1] is 18700 RLU; in test [2] it was 810 RLU; in test [4] it was 2070 RLU.

B13: TCN-522 (3212_I12) (antibody, V domains shown)
VH: QVQLQQWGAGLLKPSETLSLTCTVSGGSLTDYSWNWIRQPPGKGLEWIGDTLHNGYTNYNPSLRGRVSISIDTSKNQVSLRLTSVTAADTALYYCARGSGGYGGFDYFGKLRTWDFWGQGTLVTVSS
VL: DIQLTQSPSSLSASVGDRVTITCRASQGIRNDLGWYQQKPGNAPKRLIFGASSLQSGVPSRFSGSGSGTEFTLTISSLQPEDFATYYCLQHNSYPYTFGQGTKLEIK
As to B13, the Trimeric HA Binding: RLU in test [2] was 15100 RLU; in test [3], 21400 RLU.

B14: TCN-552 (5249_I23) (antibody, V domains shown)
VH: QVQVVQSGAEVKKPGSSVRVSCQASGGTFMNYAIIWVRRAPGQGLEWMGGIIPVFPTPNYAQMFQGRVTISTDESRSTSFLELTNLRYEDTAVYYCARRIYHGGNSGFDFWGQGTLVTVSS
VL: EIVLTQSPATLSLSPGERATLSCRASQSVGNYLAWYQQKPGQAPRLLIYDSSNRAPGIPARFSGSGSGTDFTLTISSLAPEDFAVYYCQQRSKWPPMYSFGHGTKLEIK
In the case of B14, the Trimeric HA Binding: RLU turned out to be 42200 RLU in test [1], 34600 RLU in test [5] and 19400 RLU in test [2].

B15: TCN-553 (5261_C18) (antibody, V domains shown)
VH: QVQVVQSGTEVKKPGSSVKVSCQTSGGRFMSYAITWVRQAPGQGLEWMGGIVPVFGTANYAQKFQGRVTITTDDSTRTAYMELSSLRSEDTAVYYCGFRYGSGYGFDSWGQGTLVTVSS
VL: EIVLTQSPGTLSLSPGERATLSCRASQSVSSSYLAWYQKKPGQAPRLLIYGASTRATGIPDRFTGSGSGTDFTLSISRLEPEDFAVYYCQHFGTSVFTFGGGTKVEIK
In the case of B15, the results for the Trimeric HA Binding: RLU in test [1], in test [5] and in test [2] were 26000 RLU, 39200 RLU and 22800 RLU, respectively.

B16: TCN-539 (5056_A08) (antibody, V domains shown)
VH: QVQLVESGGGVVQPGRSLRLSCAASEITFITYAMHWVRQAPGKGLEWVALISDDGSNKFYADSVKGRFTISRDNSKNTLYLQMNSLRAEDTAAYYCAREGVYFDSGTYRGYFDYWGQETLVTVSS
VL: EIVLTQSPATLSLSPGERATLSCRASQSVSSYLAWYQQKPGQAPRLLIYDASNRATGIPARFSGSGSGTDFTLTISSLEPEDFAVYYCQQRSHWPPITFGQGTRLEIK
B16: the Trimeric HA Binding: RLU in test [1] was found to be 3960 RLU.

B17: TCN-527 (5086_C06) (antibody, V domains shown)
VH: QVQLQESGPGLVKPSETLSLNCAVSGGSISNYYWSWIRQPPGKGLEWIGYISYNGRPKYNPSLTSRVTISVDTSKDQFSLELRSVTAADTALYYCARETRFGELLSPYDAFEIWGQGTMVTVSS
VL: DIQMTQSPSSLSASVGDRVTMTCRASQNIRSYLNWYQQRPGTAPKLLIYAASTLHSGVPSRFSGGGSGTDFTLTINNLQPEDFASYYCQQSYDNPQTFGQGTKVEIK
In the case of B17, the Trimeric HA Binding: RLU in test [2] was determined as 24600 RLU; in test [3], 43800 RLU.
